The record followed here is patent US20230279126A1 (published 2023).

For the test, the target named is T1, extracellular domain of human IL23R (hIL23R ECD) (human, UniProt Q5VWK5 24-355).
T1 construct: The immunogen was an ECD-human IgG1 hinge-Fc fusion
T1 sequence: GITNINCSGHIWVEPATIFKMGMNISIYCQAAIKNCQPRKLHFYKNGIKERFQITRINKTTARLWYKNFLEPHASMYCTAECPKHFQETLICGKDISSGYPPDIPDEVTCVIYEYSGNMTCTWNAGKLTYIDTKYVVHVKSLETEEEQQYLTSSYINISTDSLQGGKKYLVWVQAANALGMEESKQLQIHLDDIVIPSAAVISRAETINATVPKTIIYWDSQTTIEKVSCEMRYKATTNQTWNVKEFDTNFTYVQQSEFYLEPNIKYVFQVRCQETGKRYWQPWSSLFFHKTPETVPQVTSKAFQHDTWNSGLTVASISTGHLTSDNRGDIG
The experiment in a line: periplasmic extract ELISA (PE-ELISA) of phage clones, colorimetric. In outline: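 VHH domains were obtained from camels immunized sequentially with human and mouse receptor extracellular domain–Fc fusion proteins, then cloned with a his-tag into a phagemid in E. coli. The phage library was panned over several rounds on the human or mouse extracellular domain, and single clones were checked for selective binding by colorimetric periplasmic extract ELISA.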
Background: In an ELISA, binding on a coated surface is turned into a signal by an enzyme label.

B1: hIL23R_VHH12 (VHH)
VHH: QVQLQESGGGSVQAGGSLRLSCAASGYTSSSRCMGWFRQAPGKEREGVARIYTPTRTTWYADSVKGRFTISQDNAKNTVYLEMASLKPEDTAKYFCAAGASCAVDLFSYWGQGTQVTVSS
notes: Phagemid clone with his-tag, periplasmic extract
On to B1, for which the binding result is “binds”.

B2: hIL23R_VHH19 (VHH)
VHH: QVQLQESGGGSVQAGGSLRLSCAASGYTSCSYDMSWYRQAPGKKREFVSAIHSDGTTSYADSMKGRFTISQDNAKNTVYLQMNSLKPEDTAMYYCKTDPNYSDHVCPPYWGRGTQVTVSS
notes: as for B1
For the molecule B2, the binding result is given as “binds”.

B3: hIL23R_VHH2 (VHH)
VHH: QVQLQESGGGSVQAGGSLRLSCAASGYTYCSYDMSWYRQAPGKKREFVSSFNSDGSTSYADSVKGRFTISQDNAKNTVYLQMNSLKPEDTAMYYCKTDPHADWGAPCGGDYWGQGTQVTVSS
notes: as for B1
For B3, the binding result is given as “binds”.

B4: hIL23R_VHH4 (VHH)
VHH: QVQLQESGGGSVQAGGSLRLSCAASGSTYCTYDMTWYRQAPGKRREFVSAINSDGSTSYADSVKGRFTISQDNAKNTVYLQMNSLKPEDTAMYYCKTDPNSGWGAPCGGDYWGQGTQVTVSS
notes: as for B1
On to B4, for which the binding result was “binds”.

B5: hIL23R_VHH17 (VHH)
VHH: QVQLQESGGGSVQAGGSLRLSCTASGYTFSTMKYMGWFRQAPGKEREGVAAIWIAAGNTYYADSVKGRFTISQDNTKNTVYLQMNSLKPEDTALYYCAAARYGFVPSTWYLPERYNYWGQGTQVTVSS
notes: as for B1
On to B5, for which the binding result is on record as “binds”.

B6: hIL23R_VHH6 (VHH)
VHH: QVQLQESGGGLVQPGGSLRLSCAASGYTYCSYDMGWYRQAPGKKRKFVSSINSDGTTSYADSVKGRFTISQDNAKNTVYLQMNSLKPEDTAMYYCKTDPQTRPGKPCADYWGQGTQVTVSS
notes: as for B1
Turning to B6, the binding result is reported as “binds”.

B7: hIL23R_VHH9 (VHH)
VHH: QVQLQESGGGLVQAGGSLRLSCAASGYTYCSYDMSWYRQAPGKERKFVSSINSDGTTSYADSVKGRFTISQDNAKNTVYLQMNSLKPEDTAMYYCKTDPQTRPGKPCADYWGQGTQVTVSS
notes: as for B1
For the molecule B7, the binding result was “binds”.

B8: hIL23R_VHH3 (VHH)
VHH: QVQLQESGGGSVQAGESLRLSCAASGYTYCTYDMTWYRQAPGKKREFVSGIHSDGTTSYADSVKGRFTISQDNAENTVYLQMNSLKPEDTAMYYCKTDPIATITRRCDSYWGQGTQVTVSS
notes: as for B1
In the case of B8, the binding result is “binds”.

B9: hIL23R_VHH1 (VHH)
VHH: QVQLQESGGGSVQAGGSLRLSCAASGYTYCSYDMSWYRQAPGKKREFVSAFNSDGTTSYADSVKGRFTISQDKAKNTVYLQMNSLKPEDTAMYYCKTDPHVQSSGGYCPPYWGQGTQVTVSS
notes: as for B1
As to B9, the binding result is “binds”.

B10: hIL23R_VHH5 (VHH)
VHH: QVQLQESGGGSVQAGGSLRLSCAASGYTYCSYDMSWYRQAPGKKREFVSAIASDGSTSYADSLKGRFTISQDNAKNTVYLQMNSLKPEDTAMYYCKTDPHVQSSGGYCPPYWGQGTQVTVSS
notes: as for B1
Turning to B10, the binding result is listed as “binds”.

B11: hIL23R_VHH10 (VHH)
VHH: QVQLQESGGGSVQAGGSLKLSCAASGYTYCNYDIAWYRQAPGKERKFVSAIASDGSTSYADSVKGRFTISQDNAKNTVYLQMNSLKPEDTAMYYCKTDPIATMTRRCDPYWGQGTQVTVSS
notes: as for B1
For B11, the binding result is “binds”.

B12: hIL23R_VHH18 (VHH)
VHH: QVQLQESGGGSVQAGGSLRLACAASGYTYCNYDIAWYRQAPGKERKFVSAIASDGSTSYADSVKGRFTISQDNAKNTVYLQMNSLKPEDTAMYYCKTDPIATMTRRCDPYWGQGTQVTVSS
notes: as for B1
On to B12, for which the binding result is “binds”.

B13: hIL23R_VHH16 (VHH)
VHH: QVQLQESGGGSVEAGGALTLSCVASGYTYCNYDIAWYRQAPGKERKFVSAIASDGSTSYADSVKGRFTISQDNAKNTVYLQMNSLKPEDTAMYYCKTDPIATMTRRCDPYWGQGTQVTVSS
notes: as for B1
In the case of B13, the binding result is “binds”.

B14: hIL23R_VHH11 (VHH)
VHH: QVQLQESGGGSVQAGGSLRLSCAASGYTYCSYDMTWYRQAPGKKREFVSAIDSDGSTSYADSVKGRFTISQDNAKNTVYLQMNSLKPEDTAMYYCKTDPIATISRRCDSYWGQGTQVTVSS
notes: as for B1
On to B14, for which the binding result was “binds”.

B15: hIL23R_VHH7 (VHH)
VHH: QVQLQESGGGSVQAGGSLRLSCAASGYTYCNYDIAWYRQAPGKERKFVSAIASDGITSYADSVKGRFTISQDNAKNTVYLQMNSLKPEDTAMYYCKTDPISTITRICDPYWGQGTQVTVSS
notes: as for B1
In the case of B15, the binding result is reported as “binds”.

B16: hIL23R_VHH13 (VHH)
VHH: QVQLQESGGGSVQAGGSLRLSCAASGYTYCSYDMKWYRQAPGKKREFVSAIDSDGSTSYADSVKGRFTISQDNAKNTVYLQMNSLKPEDTAMYYCKTEGTIPVGVCPNYWGQGTQVTVSS
notes: as for B1
Regarding B16, the binding result was “binds”.

B17: hIL23R_VHH8 (VHH)
VHH: QVQLQESGGDSVQAGGSLRLSCAASGYTYCSYDMKWYRQAPGKEREFVSGIDSDGSISYADSVKGRFTISQDNAKNTVYLQMNSLKPEDTAMYYCKTEGTIPVGACPNYWGQGTQVTVSS
notes: as for B1
Consider B17, for which the binding result is “binds”.

B18: hIL23R_VHH14 (VHH)
VHH: QVQLQESGGGLVQPGGSLRLSCAASGYTYCSYDMKWYRQAPGKKREFVSAIDSDGSTSYADSVKGRFTISQDNAKNTVYLQMNSLKPEDTAMYYCKTEGTVPVGVCPNYWGQGTQVTVSS
notes: as for B1
Turning to B18, the binding result is “binds”.

B19: hIL23R_VHH15 (VHH)
VHH: QVQLQESGGGSVQAGGSLRLSCAASPGTYTSRYMGWFRQAPGKEREGVATIWPAGGNTVYADSVKGRFTISQDGAKKTVYLQMNSLKPEDTAMYYCAAAKYGGTSLAPYTYNYWGQGTQVTVSS
notes: as for B1
For the molecule B19, the binding result was “binds”.
